We go through 26 sequences from the DeepSol protein solubility set.

The nature of this data set: soluble on expression in E. coli; label from the status in PepcDB or PDB records.
For “ASWSHPQFEKIEGRDTWRYAFEEAMTDVQGVYAQKFKEEIEANSDHEIQLFPYGTLGESADIMEQTQDGILQFVDQSPGFTGSLIPEAQVFFVPYLLPTDQDHLARFFKESKAINDMFKPLYADQGLELLNMFPEGEVAMTTKTPVTTCSDLDEVKFRVMTNPLLVESYKAFGATPTPLPWGEVYGGLQTNVIQGQENPTFFLYSTKIYEVTDYITYAGHNNFTTAVMANKDFYDGLSAEDQQLVQNAALAAYDHTVVYQQQAADTELAKIMEAKPEMQVTVLTDEQRSCFKEAAAEVEAKFIEMTGDSGAAILKQMKADLAATAN”, the “soluble on expression in E. coli” value is recorded as “soluble”.

On to “ATDTLANEDCFRHESLVPNLDYERFRGSWIIAAGTSEALTQYKCWIDRFSYDDALVSKYTDSQGKNRTTIRGRTKFEGNKFTIDYNDKGKAFSAPYSVLATDYENYAIVEGCPAAANGHVIYVQLRMTLRRFHPKLGDKEMLQHYTLDQVNQNKKAIEEDLKHFNLKYEDLHSTCH”, for which the “soluble on expression in E. coli” value is listed as “soluble”.

In the case of “ATLKQLDGIHVTILHKEEGAGLGFSLAGGADLENKVITVHRVFPNGLASQEGTIQKGNEVLSINGKSLKGTTHHDALAILRQAREPRQAVIVTRKLTPEAMPDLNS”, the “soluble on expression in E. coli” value was “soluble”.

Consider “AVELAEEVTNLKQVRTMLEAIIQSSDEAISVVDENGIGLLINKAYTKMTGLSEKEVIGKPANTDISEGESMHLKVLETRRPVRGVRMKVGPNEKEVIVNVAPVIVDGILKGSVGVIHDVS”, for which the “soluble on expression in E. coli” value is given as “not soluble”.

For the sequence “AVLLLGEVTNGALNRDATAKAVAAVKALGDVTVLCAGASAKAAAEEAAKIAGVAKVLVAEDALYGHRLAEPTAALIVGLAGDYSHIAAPATTDAKNVMPRVAALLDVMVLSDVSAILDADTFERPIYAGNAIQVVKSKDAKKVFTIRTASFDAAGEGGTAPVTETAAAADPGLSSWVADEVAESDRPELTSARRVVSGGRGLGSKESFAIIEELADKLGAAVGASRAAVDSGYAPNDWQVGQTGKVVAPELYVAVGISGAIQHLAGMKDSKVIVAINKDEEAPIFQIADYGLVGDLFSVVPELTGKL”, the “soluble on expression in E. coli” value is listed as “soluble”.

With “AVPKIRIAVPSKGRISEPAIRLLENAGVGLKDTVNRKLFSKTQHPQIEVMFSRAADIPEFVADGAADLGITGYDLIVERGSDVEILEDLKYGRASLVLAAPEDSTIRGPEDIPRGAVIATEFPGITENYLREHGIDAEVVELTGSTEIAPFIGVADLITDLSSTGTTLRMNHLRVIDTILESSVKLIANRESYATKSGIIEELRTGIRGVIDAEGKRLVMLNIDRKNLDRVRALMPGMTGPTVSEVLSDNGVVAVHAVVDEKEVFNLINRLKAVGARDILVVPIERIIP”, the “soluble on expression in E. coli” value was “soluble”.

As for “AVVATDAYVKRTNIFYHASSSRLLAVGHPYYSIKKVNKTVVPKVSGYQYRVFKVVLPDPNKFALPDSSLFDPTTQRLVWACTGLEVGRGQPLGVGVSGHPLLNKYDDVENSGGYGGNPGQDNRVNVGMDYKQTQLCMVGCAPPLGEHWGKGTQSSNTSVQNGDCPPLELITSVIQDGDMVDTGFGAMNFADLQTNKSDVPLDICGTVCKYPDYLQMAADPYGDRLFFYLRKEQMFARHFFNRAGTVGEPVPDDLLVKGGNNRSSVASSIYVHTPSGSLVSSEAQLFNKPYWLQKAQGHNNGICWGNHLSVTVVDTTRSTNMTLCASVSKSATYTNSDYKEYMRHVEEFDLQFIFQLCSITLSAEVMAYIHTMNPSVLEDWNGGSGGKQDPYKDMSFWEVNLKEKFSSELDQFPLGRKFLLQSGY”, the “soluble on expression in E. coli” value is “soluble”.

As to “AYDIISDIHGCYDEMTALIQKLGYTIKNGVPVHEEGRVLVFAGDLTDRGPKSIEVIRFVAGAYEKGAVRYVPGNHCNKLYRYLKGNPVKVMHGLETTAAELEELSKDEKKSVSEQFMKLYETAPLYDILHNGELVVAHAGIRADDIGKYTRRVKDFVLYGDVTGETYPDGRPIRRDWAAAYNGKAWVVYGHTPVKEPRKVNRTINIDTGCVFGNQLTGFRFPEIETVSVPSSLPYDESRFRP”, the “soluble on expression in E. coli” value is recorded as “not soluble”.

In the case of “AYMYRSAFSVGLETRVTVPNVPIRFTKIFYNQQNHYDGSTGKFYCNIPGLYYFSYHITVYMKDVKVSLFKKDKAVLFTYDQYQEKNVDQASGSVLLHLEVGDQVWLQVYGDGDHNGLYADNVNDSTFTGFLLYHDTN”, the “soluble on expression in E. coli” value is “soluble”.

For the sequence “AYPSFEAYSNYKVDRTDLETFLDKQKEVSLYYLLQNIAYPEGQFNNGVPGTVIASPSTSNPDYYYQWTRDSAITFLTVLSELEDNNFNTTLAKAVEYYINTSYNLQRTSNPSGSFDDENHKGLGEPKFNTDGSAYTGAWGRPQNDGPALRAYAISRYLNDVNSLNEGKLVLTDSGDINFSSTEDIYKNIIKPDLEYVIGYWDSTGFDLWEENQGRHFFTSLVQQKALAYAVDIAKSFDDGDFANTLSSTASTLESYLSGSDGGFVNTDVNHIVENPDLLQQNSRQGLDSATYIGPLLTHDIGESSSTPFDVDNEYVLQSYYLLLEDNKDRYSVNSAYSAGAAIGRYPEDVYNGDGSSEGNPWFLATAYAAQVPYKLAYDAKSASNDITINKINYDFFNKYIVDLSTINSAYQSSDSVTIKSGSDEFNTVADNLVTFGDSFLQVILDHINDDGSLNEQLNRYTGYSTGAYSLTWSSGALLEAIRLRNKVKALA”, the “soluble on expression in E. coli” value is recorded as “soluble”.

Take “CEGGVDMQQSQVQLQCPLTPPRGLQVSIQGEAVAVRPGEDVLFVVRQEQGDVLTTKYQVDLGDGFKAMYVNLTLTGEPIRHRYESPGIYRVSVRAENTAGHDEAVLFVQV”: the “soluble on expression in E. coli” value is listed as “soluble”.

With “CEVDALKGTNESLERQMREMEENFAVEAANYQDTIGRLQDEIQNMKEEMARHLREYQDLLNVKMALDIEIATYRKLLEGEESRI”, the “soluble on expression in E. coli” value is “soluble”.

Regarding “CSDLPEIQNGWKTTSHTELVRGARITYQCDPGYDIVGSDTLTCQWDLSWSSDPPFCEKTEE”, the “soluble on expression in E. coli” value is “soluble”.

As to “CTPKPKSAQPVAEEFFHNVAAQDFDAAAQLTDQDDSARELLSRSWEGLQAEGLDVSLNKVDAKDTVATAKYTLTWKLPKDRTLSYDTSMTLNRINDQWTIRWQPAAVHPKLAANQHLELRAINAERASVVSSDGAEVLVPGVQYRLIADTQHIIDKAATAQTIATHLRAARAADETVPELSASDIQQALETNRGSYSLAVVNERAGDSIKQALAGVSGIRLNKEAAMVNKDPNFAPDVIRRVSSLVNDQLAGANGWSVDAVTQDGVSMQTIERHAPQVAPAIRISLNHNVQVAAERAVNLRKDKQSMLVAIRPSTGEILAIAQSDLADKQGDLALNGQYPPGSTFKIVTASAGIQDQGLNADSIVPCPGTMNIYGRTVTNYNGFSLGNVPLEKAFARSCNTTFANISEQLNKGQLKEIGRDFGIGIDYDIPGLNTLTGSIPQGDTELARTEAGYGQGE”, the “soluble on expression in E. coli” value was “not soluble”.

As for “CTRAVYIGPDHMVVTGRTMDWKEDIMSNIYVFPRGIQRAGYNKENAVKWTSKYGSVIATGYDIGTCDGMNEKGLVASLLFLPESVFDRPGDTRPVMGISIWTQYVLDNFATVHEAVEELKKESFRIDAPHMPNGSASTLHLAITDETGNTAVLEYLDGNLSIHEGKEFQVMTNSPRYDYQLAINDYWKEVGGLQMLPGTNRSSDRFVRASFYIHAIPQTPDAKIAVPSVLSVMRNVSVPFGITTPDKPHISSTRWRSVSDQKNKIYYFESVMTPNLFWLDLKKIDFSPKAGIKKLPLTNGKIY”, the “soluble on expression in E. coli” value is recorded as “not soluble”.

Consider “DDAYVERRVPQEMLGGHSQGDELPIHFSRSDAFERLPQPEPIRRRLVRVGSSPVHEERMVHQQIGDLCVGDTVAHARFGIGIIESLEGEGDNAKAEVSFQQVGRKRLLLRFAKLSKVEKDSI”, for which the “soluble on expression in E. coli” value is listed as “not soluble”.

On to “DDHSRALGRTTVNSNLGQGQVSGAESGAKTAEPAWIDFMQVALEGKPEQGKNIPDDIVRVRIDRNSGLLTHKVDSTSMFEYFEKGTEPTEYVGNSLEDSIYSSGSGGTTEELF”, for which the “soluble on expression in E. coli” value is listed as “not soluble”.

Turning to “DDLPYRFGLGKADITGEAAEVGMMGYSSLEQKTAGIHMRQWARAFVIEEAASGRRLVYVNTDLGMIFQAVHLKVLARLKAKYPGVYDENNVMLAATHTHSGPGGFSHYAMYNLSVLGFQEKTFNAIVDGIVRSIERAQARLQPGRLFYGSGELRNASRNRSLLSHLKNPDIAGYEDGIDPQMSVLSFVDANGELAGAISWFPVHSTSMTNANHLISPDNKGYASYHWEHDVSRKSGFVAAFAQTNAGNLSPNLNLKPGSGPFDNEFDNTREIGLRQFAKAYEIAGQAQEEVLGELDSRFRFVDFTRLPIRPEFTDGQPRQLCTAAIGTSLAAGSTEDGPGPLGLEEGNNPFLSALGGLLTGVPPQELVQCQAEKTILADTGNKKPYPWTPTVLPIQMFRIGQLELLGAPAEFTVMAGVRIRRAVQAASEAAGIRHVVFNGYANAYASYVTTREEYAAQEYEGGSTLYGPWTQAAYQQLFVDMAVALRERLPVETSAIAPDLSCCQMNFQTGVVADDPYIGKSFGDVLQQPRESYRIGDKVTVAFVTGHPKNDLRTEKTFLEVVNIGKDGKQTPVTVATDNDWDTQYRWERVGISASKATISWSIPPGTEPGHYYIRHYGNAKNFWTQKISEIGGSTRSFEVLGTTP”, the “soluble on expression in E. coli” value is on record as “soluble”.

Turning to “DERLELMESVDVGQTPSNVVYEENKLELLHYDAEAAGIEVPDEEKEDVPILIVYALINRPYILDLQEERSVVRRLLEAGHDVYLIDWNEPSRLDQHLTLDDYVNRYMDNCVDVVRDRSGQDAINILGYCMGGTMSVMYTALHKEKVNTLGLMAAGLCFDHTGGVLEEWGSEEYYSPQDVVDTFGNVPADMLDIGFALMDPVENYVTKYIRFAENMENEGFVENFGRMEQWLGDGIDVAGEAYVQFLEDVYQDNKLYKNELELDGKHVDLDNIDMPVLQLMGEYDHLIPPEASKPFNDVIASDDTRTIEFSTGHIGLSVSSSTHADLWPEVAEWYSER”, the “soluble on expression in E. coli” value is reported as “not soluble”.

With “DGKRVWLSDDELTRFIEQAETPHQRLAFLLAGRVGLRRSEIIEVCPQDLVDGPTGDHIRVWESYAKRDKYREPPVPQEVVTIAETLAYQQDDDEPLLDVAGSTVYRWVRRAADELEEETGDRGWQYLDVHDLRRTWGTYLLEQGVIPSVVMSFGGWEDWDTFRKHYLGEFS”, the “soluble on expression in E. coli” value was “soluble”.

In the case of “DGLEGMDDPDATSKKVVPLGVEIYEINGPFFFGVADRLKGVLDVIEETPKVFILRMRRVPVIDATGMHALWEFQESCEKRGTILLLSGVSDRLYGALNRFGFIEALGEERVFDHIDKALAYAKLLVETAEER”, the “soluble on expression in E. coli” value is “not soluble”.

With “DGNEIIGDPLRKAAKLIDKGYIVAIKGIGGIHLACDATREDVVAELRKRIFRPQKPFAIMAKDLETVRTFAYISPEEEEELTSYRRPIVALKKKEPFPLPENLAPGLHTIGVMLPYAGTHYILFHWSKTPVYVMTSANFPGMPMIKDNEEAFEKLRDVADYLLLHNRRIPNRADDSVVRFVDGRRAV”, the “soluble on expression in E. coli” value was “not soluble”.

On to DHYNCVSSGGQCLYSACPIFTRIQGTCYRGRARCCR, for which the “soluble on expression in E. coli” value is recorded as “soluble”.

With “DIHRQAYAAMLHSSQSSLGTALKFFHAQSVIDNAYDQEHVHYIDRQVKTRKGMPEASADSIRALLEIDLPARGYSKIDVPCKGSDFCIIGQQHPNSAHFVAIPDYQFLDKSGFDRVVYIWPQGYTLAEEACYFYYVNQASTDSIVRGHVTQGC”, the “soluble on expression in E. coli” value is “not soluble”.

Consider “DIKMTQSPSSMYASLGERVTITCKASQDINSYLNWFQQKPGKSPKTLIYRTNRLVDGVPSRFSGSGSGQDYSLTISSLEYEDMGIYYCLQYDEFPYTFGSGTKLEIKRTVAAPSVFIFPPSDEQLKSGTASVVCLLNNFYPREAKVQWKVDNALQSGNSQESVTEQDSKDSTYSLSSTLTLSKADYEKHKVYACEVTHQGLSSPVTKSFNR”, for which the “soluble on expression in E. coli” value is on record as “soluble”.

On to “DKCKKVYENYPVSKCQLANQCNYDCKLDKHARSGECFYDEKRNLQCICDYCEY”, for which the “soluble on expression in E. coli” value is reported as “soluble”.
